Results taken from PMC9723610.
Read-outs that look alike come from different tables or passages of the source.

Legend:
[1] = molecular target: T1, hG3BP1 (human, UniProt Q13283 1-466); assay: EMSA
[2] = molecular target: T1, hG3BP1; assay: EMSA; remark: listed apart in the source

T1 sequence (Q13283 whole entry): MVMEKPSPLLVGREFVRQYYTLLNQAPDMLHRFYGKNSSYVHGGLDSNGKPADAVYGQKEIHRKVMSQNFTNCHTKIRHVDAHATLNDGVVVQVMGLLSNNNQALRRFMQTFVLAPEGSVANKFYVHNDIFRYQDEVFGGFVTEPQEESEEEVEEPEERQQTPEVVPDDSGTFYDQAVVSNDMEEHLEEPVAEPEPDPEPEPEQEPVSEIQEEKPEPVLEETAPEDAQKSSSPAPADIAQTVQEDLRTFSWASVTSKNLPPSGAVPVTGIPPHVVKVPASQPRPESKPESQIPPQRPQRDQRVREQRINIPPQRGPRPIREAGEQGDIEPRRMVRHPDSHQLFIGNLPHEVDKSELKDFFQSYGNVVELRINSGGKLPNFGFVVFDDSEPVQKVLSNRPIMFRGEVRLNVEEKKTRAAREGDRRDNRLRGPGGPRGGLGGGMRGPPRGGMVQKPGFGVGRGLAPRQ

Binder	binding result [1]	binding result [2]
GGGUUAGGGUUAGGGUUAGGG (structured_RNA) [rOG0 rG4]	binds	–
AGGAGGAGGAGGAGG (structured_RNA) [r(AGG)5 rG4]	–	binds
GUGUGGGAGGGGCGGGUCUGGGUGCG (structured_RNA) [NRAS rG4 (rNRAS)]	binds	–
AGGGGGCCGUGGGGUGGGAGCUGGGG (structured_RNA) [BCL2 rG4 (rBCL2)]	binds	–
